The test addresses rabbit skeletal muscle actin, polymerised (F-actin) (rabbit) (UniProt P68135). The test can be described thus: co-sedimentation.

Drawing on paper PMC6232856, this text covers percent of espin cosedimented with F-actin for two substances.

Sequence of human espin 3A with the USH1M variant p.790_795delRRDLLR, N-terminally 6xHis-tagged (natural protein) (B1AK53 whole entry, stated change not applied): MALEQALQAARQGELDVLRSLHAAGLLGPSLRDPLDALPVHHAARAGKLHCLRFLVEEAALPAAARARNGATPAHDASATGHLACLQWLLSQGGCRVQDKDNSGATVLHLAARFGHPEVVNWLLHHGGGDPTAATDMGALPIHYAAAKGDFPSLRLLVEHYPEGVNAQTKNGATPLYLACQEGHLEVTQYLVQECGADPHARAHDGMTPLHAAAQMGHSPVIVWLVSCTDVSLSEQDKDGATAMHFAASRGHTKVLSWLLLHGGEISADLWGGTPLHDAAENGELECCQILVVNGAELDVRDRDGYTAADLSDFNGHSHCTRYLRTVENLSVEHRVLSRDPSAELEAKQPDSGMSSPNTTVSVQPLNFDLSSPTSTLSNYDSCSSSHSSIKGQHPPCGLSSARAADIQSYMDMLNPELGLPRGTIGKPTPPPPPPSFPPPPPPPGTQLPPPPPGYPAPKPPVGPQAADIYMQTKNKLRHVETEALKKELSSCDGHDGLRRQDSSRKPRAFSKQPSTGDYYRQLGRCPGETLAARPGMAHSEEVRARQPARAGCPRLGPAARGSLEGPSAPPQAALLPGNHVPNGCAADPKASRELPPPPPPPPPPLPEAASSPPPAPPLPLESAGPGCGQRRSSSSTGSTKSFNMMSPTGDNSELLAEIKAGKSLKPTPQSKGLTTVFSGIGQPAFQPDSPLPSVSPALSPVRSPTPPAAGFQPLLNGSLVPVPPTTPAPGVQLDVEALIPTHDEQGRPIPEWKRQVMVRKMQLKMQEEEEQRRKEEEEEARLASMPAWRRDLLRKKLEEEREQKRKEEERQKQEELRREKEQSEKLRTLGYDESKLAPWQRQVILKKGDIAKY

In turn, “human espin 3A with the USH1M variant p.790_795delRRDLLR, N-terminally 6xHis-tagged (natural protein)” gave a percent of espin cosedimented with F-actin of 15%.

In turn, “human espin 3A, wild type, N-terminally 6xHis-tagged (natural protein)” displayed a percent of espin cosedimented with F-actin of 45%.
